Reference: patent publication US11155586B2, “Cystine knot scaffold platform” (Genentech, Inc., priority 2015, dated 2021)
Positions of bridges follow the written chain, without caps; N, C: chain ends. Residues, ends and D or L forms follow the SMILES beside them.

Target: T1, hVEGF(8-109) (Homo sapiens, UniProt P15692)
T1 construct: hVEGF(8-109) or BSA were coated on 384-well MAXISORP™ immunoplates
T1 sequence (P15692 214-315): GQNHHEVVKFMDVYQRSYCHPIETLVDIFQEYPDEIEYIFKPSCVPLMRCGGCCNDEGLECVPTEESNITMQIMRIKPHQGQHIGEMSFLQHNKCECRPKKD
Test: Spot phage ELISA
Type: binding
Procedure: After four rounds of binding selection, individual phage clones were picked and inoculated into 450 μl 2YT media containing 50 µg/ml Carbenecillin and M13-KO7 helper phage in 96-well blocks, which were grown at 37° C. overnight. The supernatant was analyzed with spot phage ELISA as follows: hVEGF(8-109) or BSA were coated on 384-well MAXISORP™ immunoplates and phage supernatant diluted (1:3) with PBT buffer was added to the wells. The plates were washed and bound phage was detected with anti-M13-HRP followed by TMB substrate. In these assays, phage binding to BSA alone was tested in parallel to assess background binding. Clones whose binding signals for hVEGF-A (8-109) were more than 3 times higher than to BSA (background) were considered positive. Positive clones were subjected to DNA sequence analysis.

[1] = loop 2 variants based on VEGF_CKP9.63 framework, Table 27
[2] = spot phage ELISA signal, EETI-II-based binders against hVEGF-A, Table 19
[3] = VEGF_CKP9 Loop1/Loop5 affinity-matured variants, Table 24

Row | Molecule | S/N (signal to noise ratio as compared to BSA control) (Table 27) | ELISA [1] | other results
1 | GCDVMQPYWGCAGDFECLAGCVCHWYNSCG [VEGF_CKP9.63.42] | 23.1 | 1.7 | –
2 | GCDVMQPYWGCGQDLTCLAGCVCHWYNSCG [VEGF_CKP9.63.50] | 12.7 | 0.9 | –
3 | GCDVMQPYWGCDGDFDCLAGCVCHWYNSCG [VEGF_CKP9.63.39] | 18.9 | 1.6 | –
4 | GCDVMQPYWGCGENLACLAGCVCHWYNSCG [VEGF_CKP9.63.54] | 19.9 | 1.4 | –
5 | GCDVMQPYWGCGDDLECLAGCVCHWYNSCG [VEGF_CKP9.63.14] | 21.3 | 1.5 | –
6 | CC[C@H](C)[C@@H]1NC(=O)[C@H](CC(N)=O)NC(=O)[C@@H](NC(=O)CN)CSSC[C@@H](C(=O)N[C@H](C(=O)N[C@H]2CSSC[C@@H](C(=O)NCC(=O)O)NC(=O)[C@H](CO)NC(=O)[C@H](CCC(N)=O)NC(=O)[C@H](Cc3ccc(O)cc3)NC(=O)[C@H](Cc3ccc(O)cc3)NC(=O)[C@H](CCC(N)=O)NC2=O)C(C)C)NC(=O)CNC(=O)[C@H](C)NC(=O)[C@H](CC(C)C)NC(=O)[C@@H]2CSSC[C@H](NC(=O)CNC(=O)[C@H](Cc3c[nH]c4ccccc34)NC(=O)[C@H](Cc3ccccc3)NC(=O)[C@@H]3CCCN3C(=O)[C@H](CC(C)C)NC(=O)[C@H](CCSC)NC1=O)C(=O)NCC(=O)N[C@@H](CC(C)C)C(=O)N[C@@H](CC(=O)O)C(=O)N[C@@H](Cc1ccc(O)cc1)C(=O)N[C@@H](CC(=O)O)C(=O)N2 [VEGF_CKP9.54.2] (H-GCNIMLPFWGCGLDYDCLAGCVCQYYQSCG-OH; disulfide 2-21, 11-17, 23-29; N-terminus and C-terminus assumed) | – | – | S/N (signal to noise ratio as compared to BSA control) (Table 26): 26; ELISA (loop 2 variants based on 9.54 framework, Table 26): 0.1
7 | GCDVMQPYWGCGMDIECLAGCVCHWYNSCG [VEGF_CKP9.63.16] | 10.3 | 2.2 | –
8 | CC(C)C[C@@H]1NC(=O)[C@@H]2CSSC[C@@H](C(=O)NCC(=O)O)NC(=O)[C@H](Cc3ccccc3)NC(=O)CNC(=O)[C@H](CC(N)=O)NC(=O)[C@@H]3CCCN3C(=O)CNC(=O)[C@@H]3CSSC[C@H](NC(=O)[C@H](Cc4ccc(O)cc4)NC(=O)[C@H](CCC(N)=O)NC(=O)[C@H](CCCCN)NC(=O)[C@H](Cc4ccccc4)NC(=O)[C@H](CCCNC(=N)N)NC(=O)[C@H]([C@@H](C)O)NC(=O)[C@H]([C@@H](C)O)NC(=O)[C@@H]4CCCN4C(=O)[C@@H](NC(=O)CN)CSSC[C@H](NC(=O)CNC(=O)[C@H](C)NC1=O)C(=O)N[C@@H](C(C)C)C(=O)N3)C(=O)N[C@@H](CCCCN)C(=O)N[C@@H](CCC(N)=O)C(=O)N[C@@H](CC(=O)O)C(=O)N[C@@H](CO)C(=O)N[C@@H](CC(=O)O)C(=O)N2 [VEGF_CKP6] (H-GCPTTRFKQYCKQDSDCLAGCVCGPNGFCG-OH; disulfide 2-21, 11-23, 17-29; N-terminus and C-terminus assumed) | – | – | S/N (signal to noise ratio as compared to BSA control) (Table 19): 51.9; ELISA [2]: 3.5
9 | CC[C@H](C)[C@@H]1NC(=O)[C@H](CCC(=O)O)NC(=O)[C@H](Cc2c[nH]cn2)NC(=O)[C@@H]2CCCN2C(=O)[C@@H]2CCCN2C(=O)[C@H](Cc2c[nH]c3ccccc23)NC(=O)[C@@H]2CCCN2C(=O)[C@H]([C@@H](C)O)NC(=O)[C@H]([C@@H](C)O)NC(=O)[C@@H](NC(=O)CN)CSSC[C@@H]2NC(=O)CNC(=O)[C@H](C)NC(=O)[C@H](CC(C)C)NC(=O)[C@@H]3CSSC[C@@H](C(=O)NCC(=O)O)NC(=O)[C@H](Cc4ccccc4)NC(=O)CNC(=O)[C@H](CC(N)=O)NC(=O)[C@@H]4CCCN4C(=O)CNC(=O)[C@H](CSSC[C@H](NC(=O)[C@H](CCSC)NC1=O)C(=O)N[C@@H](CCCCN)C(=O)N[C@@H](CCC(N)=O)C(=O)N[C@@H](CC(=O)O)C(=O)N[C@@H](CO)C(=O)N[C@@H](CC(=O)O)C(=O)N3)NC(=O)[C@H](C(C)C)NC2=O [VEGF_CKP12] (H-GCTTPWPPHEIMCKQDSDCLAGCVCGPNGFCG-OH; disulfide 2-23, 13-25, 19-31; N-terminus and C-terminus assumed) | – | – | S/N (signal to noise ratio as compared to BSA control) (Table 19): 55.2; ELISA [2]: 3.5
10 | CC(C)C[C@@H]1NC(=O)[C@@H]2CSSC[C@H](NC(=O)CNC(=O)[C@H](Cc3c[nH]c4ccccc34)NC(=O)[C@H](Cc3ccccc3)NC(=O)[C@@H]3CCCN3C(=O)[C@H](CCC(N)=O)NC(=O)[C@H](CC(C)C)NC(=O)[C@H](C(C)C)NC(=O)[C@H](CC(=O)O)NC(=O)[C@@H](NC(=O)CN)CSSC[C@@H](C(=O)N[C@H](C(=O)N[C@H]3CSSC[C@@H](C(=O)NCC(=O)O)NC(=O)[C@H](CO)NC(=O)[C@H](CCC(N)=O)NC(=O)[C@H](Cc4ccc(O)cc4)NC(=O)[C@H](Cc4c[nH]c5ccccc45)NC(=O)[C@H](Cc4c[nH]cn4)NC3=O)C(C)C)NC(=O)CNC(=O)[C@H](C)NC1=O)C(=O)N[C@@H](CCCCN)C(=O)N[C@@H](CCC(N)=O)C(=O)N[C@@H](CC(=O)O)C(=O)N[C@@H](CO)C(=O)N[C@@H](CC(=O)O)C(=O)N2 [VEGF_CKP9.2] (H-GCDVLQPFWGCKQDSDCLAGCVCHWYQSCG-OH; disulfide 2-21, 11-17, 23-29 (inferred); N-terminus and C-terminus assumed) | – | – | S/N (signal to noise ratio as compared to BSA control) (Table 24): 31.1; ELISA [3]: 2.4
11 | GCDVMQPYWGCGNSFECLAGCVCHWYNSCG [VEGF_CKP9.63.47] | 20.7 | 1.7 | –
12 | GCDVMQPYWGCGQDYNCLAGCVCHWYNSCG [VEGF_CKP9.63.56] | 8.4 | 1.8 | –
13 | GCDVMQPYWGCGADLSCLAGCVCHWYNSCG [VEGF_CKP9.63.62] | 25.4 | 1.8 | –
14 | GCDVMQPYWGCGRDLQCLAGCVCHWYNSCG [VEGF_CKP9.63.2] | 15.0 | 2.0 | –
15 | CC(C)C[C@@H]1NC(=O)[C@@H]2CSSC[C@H](NC(=O)CNC(=O)[C@H](Cc3c[nH]c4ccccc34)NC(=O)[C@H](CC(C)C)NC(=O)[C@@H]3CCCN3C(=O)[C@H](CCC(=O)O)NC(=O)[C@H](Cc3ccccc3)NC(=O)[C@H](CC(C)C)NC(=O)[C@H](CCCCN)NC(=O)[C@@H](NC(=O)CN)CSSC[C@@H](C(=O)N[C@H](C(=O)N[C@H]3CSSC[C@@H](C(=O)NCC(=O)O)NC(=O)[C@H](CO)NC(=O)[C@H](CCC(=O)O)NC(=O)[C@H](Cc4ccc(O)cc4)NC(=O)[C@H](Cc4c[nH]c5ccccc45)NC(=O)[C@H](CCCNC(=N)N)NC3=O)C(C)C)NC(=O)CNC(=O)[C@H](C)NC1=O)C(=O)N[C@@H](CCCCN)C(=O)N[C@@H](CCC(N)=O)C(=O)N[C@@H](CC(=O)O)C(=O)N[C@@H](CO)C(=O)N[C@@H](CC(=O)O)C(=O)N2 [VEGF_CKP9.96] (H-GCKLFEPLWGCKQDSDCLAGCVCRWYESCG-OH; disulfide 2-21, 11-17, 23-29; N-terminus and C-terminus assumed) | – | – | S/N (signal to noise ratio as compared to BSA control) (Table 24): 18.4; ELISA [3]: 1.2
16 | GCQLMQPFWGCKQDSDCLAGCVCHWYQSCG [VEGF_CKP9.L5.18] | – | – | S/N (signal to noise ratio as compared to BSA control) (Table 23): 20.4; ELISA (VEGF_CKP9 Loop5 affinity-matured variants, Table 23): 1.6
